Experimental data taken from article PMC8778164, “Towards Complete Tumor Resection: Novel Dual-Modality Probes for Improved Image-Guided Surgery of GRPR-Expressing Prostate Cancer” (Pharmaceutics, 2022).
Where two headings read alike, the source gives them in different places.

Experiments:
[1] = Stability in mouse serum at 37 °C (iTLC); type: in vitro ADME
Experimental: Stability in PBS was determined by incubating 20 µL of the labeled compounds (∼11 MBq) in PBS (80 µL) at 37 °C. Radiochemical purity was determined by iTLC at 30 min, 1 h, 2 h and 4 h. Stability in the serum was carried out by adding 70 µL of the labeled compound (∼35 MBq) to 330 µL of mouse serum (Merck, Haarlerbergweg, The Netherlands). The mixture was incubated at 37 °C. At different time points (30 min, 1 h, 2 h and 4 h), an aliquot of the mixture (50 µL) was added to 50 µL ACN. The vial was vortexed and centrifuged at 10,000 rpm for 20 min and the supernatant was analyzed by iTLC.

[2] = Ex vivo biodistribution after SPECT/CT scanning; type: in vivo, mouse; conditions: mouse, iv, ~3 h p.i.; for tissue to tissue ratio: male, Balb/c nu/nu, total radioactivity, radioactivity; for tissue uptake at 3 h: PC-3 xenograft mice, i.v.
Experimental: (§1) Seven-week-old male Balb/c nu/nu-specific and opportunistic pathogen-free (SOPF) mice (Janvier Labs, Le Genest-Saint-Isle, France) were housed in individually ventilated cages, with 4 mice per cage. Upon arrival, mice were acclimated for 1 week, with access to food and water ad libitum. Mice were subcutaneously inoculated on the right shoulder with PC-3 cells (5 × 10^6 cells suspended in 100 µL of 1/3 Matrigel (Corning Inc., Corning, NY, USA) and 2/3 Hank’s balanced salt solution (Gibco). PC-3 xenografts were allowed to grow for 3 weeks. Tumor sizes were 391 ± 173 mm^3 at the start of the studies. All animal experiments were approved by the Animal Welfare Committee of the Erasmus MC and were conducted in agreement with institutional guidelines (license number: AVD101002017867, 28 September 2017).
(§2) To determine the biodistribution of the compounds after imaging (~3 h p.i.), blood was collected via cardiac puncture under isoflurane/O2 anesthesia, after which the mice were sacrificed. The tumor and organs of interest (prostate, pancreas, spleen, liver, GI tract (stomach, small intestine, cecum, large intestine), kidneys, lungs, heart, muscle, bone, and brain) were excised, washed in PBS and blotted dry. The stomach, intestines and cecum were emptied of their contents. The tumor was cut in half; one half was fresh-frozen for further analysis and the other half was collected for ex vivo optical imaging and radioactivity measurements. After imaging, the blood, tumor, and relevant organs were weighed and measured in a γ-counter. To determine the total injected radioactivity per animal, samples of the injected solutions were measured as well. The percentage of injected dose per gram (%ID/g) was determined for each tissue sample and corrected for both the injected volume and %ID present at the injection site (the tail). Because the low weight of the prostate limited accurate organ weight measurements, the average prostate weight of all animals was used.

[3] = test system: PC-3-xenograft Balb/c nu/nu mice; assay: Ex vivo biodistribution after SPECT/CT scanning; type: in vivo, mouse; conditions: radioactivity, ~3 h p.i.
Experimental: as §1, §2

[4] = Ex vivo optical (fluorescence, IVIS) imaging of organs; type: in vivo, mouse; conditions: male, Balb/c nu/nu, mouse, iv, ex vivo radiant efficiency
Experimental: as §1
Before gamma counter measurements, the tumor half, pancreas, kidneys, lungs, small intestine, large intestine, liver, muscle, and bone were placed in two petri dishes and ex vivo optical imaging was performed with the IVIS Spectrum system (Perkin Elmer, Waltham, MA, USA) using the following settings for all measurements: FOV 12.6 cm, medium binning, f2, 0.5 s exposure with an excitation/emission filter of 640 nm/680 nm. Living Image version 4.5.2 software (Perkin Elmer) was used to perform data analysis by drawing a region of interest around the organ/tissue to quantify the radiant efficiency {(photons/second/cm^2/steradian)/(μW/cm^2)}.

[5] = blocked with 150 nmol unlabeled NeoB, n = 1

CC(C)CC(CC(C)C)NC(=O)[C@H](Cc1c[nH]cn1)NC(=O)CNC(=O)[C@@H](NC(=O)[C@H](C)NC(=O)[C@H](Cc1c[nH]c2ccccc12)NC(=O)[C@H](CCC(N)=O)NC(=O)[C@@H](Cc1ccccc1)NC(=O)COCC(=O)Nc1ccc(CNC(=O)[C@H](CCCCNC(=O)CCOCCOCCOCCOCCNC(=O)OC2CCCC3C=NN=C(c4ccc(CNC(=O)CCCCC[N+]5=C(/C=C/C=C/C=C6N(C)c7ccc(S(=O)(=O)O)cc7C6(C)C)C(C)(C)c6cc(S(=O)(=O)[O-])ccc65)cc4)C3CC2)NC(=O)CN2CCN(CC(=O)O)CCN(CC(=O)O)CCN(CC(=O)O)CC2)cc1)C(C)C (stereo partly drawn) [[^111In]In-12, metal not drawn]
Stability in Mouse Serum (%) 30 min ([1]; intact labeled ligand after incubation at 37 °C in mouse serum, 30 min, n = 1): 96.3%
Stability in Mouse Serum (%) 1 h ([1]; intact labeled ligand after incubation at 37 °C in mouse serum, 1 h, n = 1): 96.4%
Stability in Mouse Serum (%) 2 h ([1]; intact labeled ligand after incubation at 37 °C in mouse serum, 2 h, n = 1): 96.5%
Stability in Mouse Serum (%) 4 h ([1]; intact labeled ligand after incubation at 37 °C in mouse serum, 4 h, n = 1): 96.5%
Protein-Bound Fraction at 4 h (%) ([1]; mouse serum, 4 h): 7.0%
tissue to tissue ratio ([2]; tumor and blood, non-blocked, n = 3, read-out: Tumor-to-blood ratio): 1.09 ± 0.15
tissue to tissue ratio ([2]; tumor and kidney, blocked with 150 nmol unlabeled NeoB, n = 1, read-out: Tumor-to-kidney ratio): 0.16
tissue to tissue ratio ([2]; tumor and kidney, non-blocked, n = 3, read-out: Tumor-to-kidney ratio): 0.34 ± 0.05
tissue to tissue ratio ([2]; tumor and liver, blocked with 150 nmol unlabeled NeoB, n = 1, read-out: Tumor-to-liver ratio): 0.14
tissue to tissue ratio ([2]; tumor and liver, non-blocked, n = 3, read-out: Tumor-to-liver ratio): 0.55 ± 0.04
tissue to tissue ratio ([2]; tumor and muscle, blocked with 150 nmol unlabeled NeoB, n = 1, read-out: Tumor-to-muscle ratio): 2.62
tissue to tissue ratio ([2]; tumor and muscle, non-blocked, n = 3, read-out: Tumor-to-muscle ratio): 9.04 ± 1.74
tissue to tissue ratio ([2]; tumor and pancreas, blocked with 150 nmol unlabeled NeoB, n = 1, read-out: Tumor-to-pancreas ratio): 2.16
tissue to tissue ratio ([2]; tumor and pancreas, non-blocked, n = 3, read-out: Tumor-to-pancreas ratio): 0.51 ± 0.03
tissue uptake at 3 h ([2]; blood, blocked with 150 nmol unlabeled NeoB, n = 1, read-out: Blood uptake): 7.31 %ID/g
tissue uptake at 3 h ([2]; blood, non-blocked, n = 3, read-out: Blood uptake): 7.83 ± 0.84 %ID/g
tissue uptake at 3 h ([2]; bone, blocked with 150 nmol unlabeled NeoB, n = 1, read-out: Bone uptake): 1.87 %ID/g
tissue uptake at 3 h ([2]; bone, non-blocked, n = 3, read-out: Bone uptake): 2.03 ± 0.89 %ID/g
tissue uptake at 3 h ([2]; brain, blocked with 150 nmol unlabeled NeoB, n = 1, read-out: Brain uptake): 0.2 %ID/g
tissue uptake at 3 h ([2]; brain, non-blocked, n = 3, read-out: Brain uptake): 0.2 ± 0.03 %ID/g
tissue uptake at 3 h ([2]; cecum, blocked with 150 nmol unlabeled NeoB, n = 1, read-out: Cecum uptake): 2.35 %ID/g
tissue uptake at 3 h ([2]; cecum, non-blocked, n = 3, read-out: Cecum uptake): 3.73 ± 0.4 %ID/g
tissue uptake at 3 h ([2]; heart, blocked with 150 nmol unlabeled NeoB, n = 1, read-out: Heart uptake): 2.24 %ID/g
tissue uptake at 3 h ([2]; heart, non-blocked, n = 3, read-out: Heart uptake): 2.39 ± 0.23 %ID/g
tissue uptake at 3 h ([2]; kidneys, blocked with 150 nmol unlabeled NeoB, n = 1, read-out: Kidneys uptake): 17.1 %ID/g
tissue uptake at 3 h ([2]; kidneys, non-blocked, n = 3, read-out: Kidneys uptake): 24.9 ± 2.78 %ID/g
tissue uptake at 3 h ([2]; large intestine, blocked with 150 nmol unlabeled NeoB, n = 1, read-out: Large intestine uptake): 2.06 %ID/g
tissue uptake at 3 h ([2]; large intestine, non-blocked, n = 3, read-out: Large intestine uptake): 3.88 ± 0.4 %ID/g
tissue uptake at 3 h ([2]; liver, blocked with 150 nmol unlabeled NeoB, n = 1, read-out: Liver uptake): 20 %ID/g
tissue uptake at 3 h ([2]; liver, non-blocked, n = 3, read-out: Liver uptake): 15.3 ± 0.43 %ID/g
tissue uptake at 3 h ([2]; lungs, blocked with 150 nmol unlabeled NeoB, n = 1, read-out: Lungs uptake): 16.1 %ID/g
tissue uptake at 3 h ([2]; lungs, non-blocked, n = 3, read-out: Lungs uptake): 6.51 ± 1.15 %ID/g
tissue uptake at 3 h ([2]; muscle, blocked with 150 nmol unlabeled NeoB, n = 1, read-out: Muscle uptake): 1.04 %ID/g
tissue uptake at 3 h ([2]; muscle, non-blocked, n = 3, read-out: Muscle uptake): 0.96 ± 0.16 %ID/g
tissue uptake at 3 h ([2]; pancreas, blocked with 150 nmol unlabeled NeoB, n = 1, read-out: Pancreas uptake): 1.26 %ID/g
tissue uptake at 3 h ([2]; pancreas, non-blocked, n = 3, read-out: Pancreas uptake): 16.6 ± 1.41 %ID/g
tissue uptake at 3 h ([2]; prostate, blocked with 150 nmol unlabeled NeoB, n = 1, read-out: Prostate uptake): 4.36 %ID/g
tissue uptake at 3 h ([2]; prostate, non-blocked, n = 3, read-out: Prostate uptake): 3.56 ± 1.62 %ID/g
tissue uptake at 3 h ([2]; small intestine, blocked with 150 nmol unlabeled NeoB, n = 1, read-out: Small intestine uptake): 1.45 %ID/g
tissue uptake at 3 h ([2]; small intestine, non-blocked, n = 3, read-out: Small intestine uptake): 4.4 ± 2.45 %ID/g
tissue uptake at 3 h ([2]; spleen, blocked with 150 nmol unlabeled NeoB, n = 1, read-out: Spleen uptake): 3.32 %ID/g
tissue uptake at 3 h ([2]; spleen, non-blocked, n = 3, read-out: Spleen uptake): 4.11 ± 0.94 %ID/g
tissue uptake at 3 h ([2]; stomach, blocked with 150 nmol unlabeled NeoB, n = 1, read-out: Stomach uptake): 3.12 %ID/g
tissue uptake at 3 h ([2]; stomach, non-blocked, n = 3, read-out: Stomach uptake): 3.22 ± 0.54 %ID/g
tissue uptake at 3 h ([2]; tumor, blocked with 150 nmol unlabeled NeoB, n = 1, read-out: Tumor uptake): 2.72 %ID/g
tissue uptake at 3 h ([2]; tumor, non-blocked, n = 3, read-out: Tumor uptake): 8.47 ± 0.46 %ID/g
Tumor-to-blood ratio [3, 5]: 0.37
Tumor-to-prostate ratio [3, 5]: 0.62
Tumor-to-prostate ratio ([3]; non-blocked, n = 3): 2.86 ± 1.58
tissue to tissue ratio ([4]; tumor and kidney, blocked with 150 nmol unlabeled NeoB, n = 1, read-out: Tumor-to-kidney ratio (fluorescence)): 0.31
tissue to tissue ratio ([4]; tumor and kidney, non-blocked, n = 3, read-out: Tumor-to-kidney ratio (fluorescence)): 0.47 ± 0.16
tissue to tissue ratio ([4]; tumor and liver, blocked with 150 nmol unlabeled NeoB, n = 1, read-out: Tumor-to-liver ratio (fluorescence)): 0.69
tissue to tissue ratio ([4]; tumor and liver, non-blocked, n = 3, read-out: Tumor-to-liver ratio (fluorescence)): 1.96 ± 0.47
tissue to tissue ratio ([4]; tumor and muscle, blocked with 150 nmol unlabeled NeoB, n = 1, read-out: Tumor-to-muscle ratio (fluorescence)): 2.21
tissue to tissue ratio ([4]; tumor and muscle, non-blocked, n = 3, read-out: Tumor-to-muscle ratio (fluorescence)): 5.69 ± 1.94
tissue to tissue ratio ([4]; tumor and pancreas, blocked with 150 nmol unlabeled NeoB, n = 1, read-out: Tumor-to-pancreas ratio (fluorescence)): 2.54
tissue to tissue ratio ([4]; tumor and pancreas, non-blocked, n = 3, read-out: Tumor-to-pancreas ratio (fluorescence)): 0.69 ± 0.22
